# Data taken from patent publication EP4360658A1, “COMPOUNDS FOR DETECTION OF ORAL INFLAMMATION” (Julius-Maximilians-Universität Würzburg, priority 2022, dated 2024).
# Several values for one entry are separate records, joined by “and”; a condition that tells them apart may be missing. Identical values can stand only once. *1 amine or outer side, *2 acyl side, *3 side chain or, on linkers, in order; H or OH if unused. Where a SMILES comes first, the peptide text is derived from it. Primed or numbered codes have the meaning given here. Where no end group is shown, it is not given here. [ ]: non-standard residue; d: D form. The star is where a group is joined. Aha′ = its azide, alkyne or alkene has reacted where a group follows in round brackets; Den = denatonium (bitter payload), attached at the C-terminus via CH2-NH2; DBCO‑Sulfo‑Cy5 = fluorescent dye clicked to Aha; AFDye488‑DBCO = fluorescent dye clicked to Aha; X1 = CC[N+](CC)(CC(=O)[*:2])Cc1ccc(CN[*:1])cc1; NH(2,6-Me2-phenyl) = Cc1cccc(C)c1N*
# Experiments:
# [1] = biological target: T1, MMP-1 (Homo sapiens, UniProt P03956); assay: Sensor cleavage by MMP-1; type: biochemical; settings: for cleavage rate (multiplexing): sensors in mixture, 17.5 nM MMP-1, incubation 15 minutes
# T1 construct: purchased Merck Millipore
# T1 sequence (P03956 100-469): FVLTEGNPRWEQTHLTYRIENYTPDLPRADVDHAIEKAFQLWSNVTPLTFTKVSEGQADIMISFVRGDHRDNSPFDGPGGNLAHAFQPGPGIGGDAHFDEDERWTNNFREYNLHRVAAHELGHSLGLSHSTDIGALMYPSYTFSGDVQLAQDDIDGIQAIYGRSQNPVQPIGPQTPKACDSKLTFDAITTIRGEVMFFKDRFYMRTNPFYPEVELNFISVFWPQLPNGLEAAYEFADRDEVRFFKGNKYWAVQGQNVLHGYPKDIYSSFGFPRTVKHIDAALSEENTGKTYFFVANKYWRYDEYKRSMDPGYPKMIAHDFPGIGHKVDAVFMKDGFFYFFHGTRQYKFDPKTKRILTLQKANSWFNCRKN
# Description: (§1) Pro-Matrix-metalloproteinases (MMP-1, MMP-8, and MMP-9) (Merck Millipore, Burlington, MA, USA) were activated prior usage. To activate Pro-MMPs a fresh 50 mM 4-Aminophenylmercuric acetate (APMA) stock solution in 0.1 M NaOH was prepared. The stock solution was added in a 10:1 (v/v) ratio to Pro-MMPs (Pro-MMPs:APMA) to reach a final concentration of 5 mM APMA. The solution was incubated for 3 h at 37 °C without agitation. Following incubation, the activated MMPs were stored in aliquots at -80 °C.
# Lyophilized sensors and Y3 were solubilized in MMP buffer (200 mM NaCl, 50 mM Tris-HCI, 5 mM CaCl2, 1 µM ZnCl2, 0.05 % Brij35 at pH 6.8-7.0) to 1 mM stock solutions. Cleavage was performed at 37 °C under rigorous shaking in 30 µL MMP buffer containing 0.1 mM of the respective sensor/peptide and 900 ng/mL MMP-8, or a molar equivalent of MMP-1 or MMP-9 for single cleavage conditions. Cleavage of sensors in mixture was performed with sensor concentrations of 25 µM for each sensor. The reaction was stopped via addition of 5 mM EDTA final concentration.
# (§2) Experiments were performed n = 5. Cleavage was analyzed via fluorescent detection via HPLC with following wavelengths: SP3 (absorption: 646 nm; emission: 661 nm), SP5 (absorption: 494 nm; emission: 517 nm), SP7 (absorption: 553 nm; emission: 566 nm) and SN3 (absorption: 280 nm; emission: 350 nm). Y3 cleavage was analyzed as described before. Cleavage percent was analyzed by comparing the AUC of the main peak from the compound incubated with MMP and in absence of MMP. Cleavage percent was then normalized by multiplying cleavage results with a correction factor. The correction factor was determined individually for every experiment/MMP by dividing Y3 cleavage results acquired in protease sensitive linker identification study by cleavage results of Y3 in individual sensor cleavage experiments (Figure 3 D-F).
# [2] = biological target: T2, MMP-9 (Homo sapiens, UniProt P14780); assay: Sensor cleavage by MMP-9; type: biochemical
# T2 construct: purchased Merck Millipore
# Description: as §1
# (§3) Lyophilized sensors and Y3 were solubilized in MMP buffer (200 mM NaCl, 50 mM Tris-HCI, 5 mM CaCl2, 1 µM ZnCl2, 0.05 % Brij35 at pH 6.8-7.0) to 1 mM stock solutions. […]
# as §2, with “Cleavage percent was then normalized by multiplying cleavage results with a correction factor.” left out
# [3] = biological target: T3, MMP-8 (Homo sapiens, UniProt P22894); assay: Sensor cleavage by MMP-8; type: biochemical; settings: sensors in mixture, 17.5 nM MMP-8, incubation 15 minutes
# T3 construct: purchased Merck Millipore
# Description: as §1, §3
# as §2, with “Cleavage percent was then normalized by multiplying cleavage results with a correction factor.” left out
# [4] = Sensor cleavage in human saliva; type: biochemical; settings: for cleavage in saliva from patients compared to saliva from healthy donors: periodontitis patients vs. healthy donors
# Description: Lyophilized sensors were solubilized in MMP buffer to 0.05 mM each and mixed with saliva 1:1 (v/v) to reach a final concentration of 25 µM per sensor. The solution was incubated for 15 min at 37 °C under rigorous shaking and the reaction was stopped via addition of 5 mM EDTA final concentration. The samples were diluted 1:2 with acetonitrile, 1:5 with water (1:10 total dilution) and analyzed via HPLC as described before. Cleavage efficiency was analyzed by comparing the AUC of the newly formed peaks compared to the total AUC of the combined peaks. Peaks with LU < 1 were considered below the limit of detection and set to 0.5 LU for further analysis.
# The study participants were recruited from patients visiting the department of Periodontology of the University Hospital of Würzburg, Germany between Oct/2019 to Dec/2020. Periodontally healthy patients as well as patients with periodontal diseases of varying severity (gingivitis, periodontitis) were included. The periodontally diseased patients were in different stages of treatment (untreated patients before active initial therapy, treated recall patients in regular supportive aftercare). Eligibility criteria were age 18 to 99 years. Patients of both sexes, with and without periodontal disease were included in the study.
# Periodontal examinations were obtained from all study participants comprising the documentation of missing teeth, probing pocket depths (PPD), recession, bleeding on probing (BoP), clinical attachment level (CAL), furcation involvement, tooth mobility and plaque control record (PlaCR). Demographic details and general health profile of the participants including current intake of medications and frequency of smoking was documented using a questionnaire. CAL, PPD and BoP were recorded at 6 sites per tooth (mesio-buccal, buccal, disto-buccal, disto-oral, oral, mesio-oral) using a pressure calibrated computer aided Florida Probe handpiece. Any bleeding spot appearing within 30 seconds after probing was recorded as a BoP-positive site. Furcation involvement was determined using a manual furcation probe (Nabers Probe). The total amount of periodontal inflammation present in each patient was calculated from the recorded BoP, CAL and PPD scores using the PISA-Index. Collected samples were quality-controlled hosted by the certified centralized biobank of the medical faculty of the University of Würzburg. […]
# Saliva samples were prepared as above. The MMP-8 activity assay (Quickzyme, Leiden, Netherlands) was performed following provided protocols. In brief, reagents were prepared as described by protocols. […] Absorbance was measured at 405 nm in a microplate reader (Tecan Infinite F50, Crailsheim, Germany) at 0, 2, 4 and 6 h. […]
# [5] = biological target: MMP mix (a mixture of MMPs 1, 8, and 9); assay: cell-based or functional assay
# [6] = control saliva samples, per patient, sensors in mixture, 25 µM per sensor, 15 min at 37 °C
# T3 sequence (P22894 101-467): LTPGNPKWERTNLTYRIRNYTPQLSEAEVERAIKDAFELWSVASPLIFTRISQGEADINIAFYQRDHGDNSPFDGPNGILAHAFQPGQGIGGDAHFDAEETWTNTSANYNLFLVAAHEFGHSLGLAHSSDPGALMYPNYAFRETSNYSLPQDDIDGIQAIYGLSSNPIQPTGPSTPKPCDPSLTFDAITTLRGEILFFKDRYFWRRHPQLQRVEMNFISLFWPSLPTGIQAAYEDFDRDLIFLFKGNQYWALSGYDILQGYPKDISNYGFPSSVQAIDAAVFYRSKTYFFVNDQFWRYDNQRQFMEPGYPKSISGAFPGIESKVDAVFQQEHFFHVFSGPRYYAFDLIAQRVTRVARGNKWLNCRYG
# T2 sequence (P14780 107-707 limits assumed): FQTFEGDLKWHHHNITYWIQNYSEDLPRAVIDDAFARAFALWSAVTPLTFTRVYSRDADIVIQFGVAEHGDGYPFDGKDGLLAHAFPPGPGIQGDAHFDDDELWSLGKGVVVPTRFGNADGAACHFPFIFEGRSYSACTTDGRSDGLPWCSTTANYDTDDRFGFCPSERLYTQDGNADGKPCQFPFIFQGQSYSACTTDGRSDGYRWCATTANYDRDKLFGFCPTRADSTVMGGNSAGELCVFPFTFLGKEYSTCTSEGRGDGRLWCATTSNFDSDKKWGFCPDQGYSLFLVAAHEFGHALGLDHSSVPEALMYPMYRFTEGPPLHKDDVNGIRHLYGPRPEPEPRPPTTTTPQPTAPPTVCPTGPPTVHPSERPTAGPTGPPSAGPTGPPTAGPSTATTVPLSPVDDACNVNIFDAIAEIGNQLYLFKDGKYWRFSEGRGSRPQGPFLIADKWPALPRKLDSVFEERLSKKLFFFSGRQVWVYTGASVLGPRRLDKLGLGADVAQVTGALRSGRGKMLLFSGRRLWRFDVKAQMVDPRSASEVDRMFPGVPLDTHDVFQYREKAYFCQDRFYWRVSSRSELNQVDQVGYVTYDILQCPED
molecule,measurement,setting,value
"CC[C@H](C)[C@H](NC(=O)CNC(=O)[C@H](CCC(N)=O)NC(=O)[C@@H]1CCCN1C(=O)CNC(=O)[C@H](CO)NC(=O)CNC(=O)[C@H](CO)NC(=O)CNC(C)=O)C(=O)N[C@@H](C)C(=O)NCC(=O)N[C@@H](C)C(=O)NCC(=O)N[C@@H](CO)C(=O)NCC(=O)N[C@@H](CO)C(=O)NCc1ccc(C[N+](CC)(CC)CC(=O)Nc2c(C)cccc2C)cc1 [S1, Ac-GSGS-GPQGIAGA-GSGS-Den] (Ac-GSGSGPQGIAGAGSGS[X1]-{NH(2,6-Me2-phenyl)})",maximum cleavage,"[1]; MMP-1, 15 min, concentrations ranging from 1 to 10 nM",7%
same,maximum cleavage,"[2]; MMP-9, 15 min, concentrations ranging from 1 to 10 nM",10%
SY3: sensor from PSL-Y3: Y3a with C-terminal L-azidohomoalanine clicked to fluorescent dye DBCO-Sulfo-Cy5 (Ac-GSGSGPLALVGAGSGS[Aha′](DBCO‑Sulfo‑Cy5)),cleavage rate (multiplexing),[1],cleaved most effectively
same,cleavage rate (multiplexing),[3],cleaved most effectively
same,Cleavage SY3,[4]; [6],1.39% (2×) and 3.77% and 3.71% and 2.96% and 0.34% and 4.60% and 1.80% and 5.40% and 0.29% and 11.05% and 1.60% and 1.07% and 0.38% and 0.37% and 0.31%
same,cleavage in saliva from patients compared to saliva from healthy donors,[4],discriminated against periodontitis
SY5: sensor from PSL-Y5: Y5a with C-terminal L-azidohomoalanine clicked to fluorescent dye AFDye488-DBCO (Ac-GSGSGALELVGAGSGS[Aha′](AFDye488‑DBCO)),cleavage rate (multiplexing),[1],not MMP-1 or MMP-9
same,cleavage rate (multiplexing),"[2]; sensors in mixture, 17.5 nM MMP-9, incubation 15 minutes",not MMP-1 or MMP-9
same,cleavage rate (multiplexing),[3],responded to MMP-8
same,Cleavage SY5,[4]; [6],2.55% and 4.69% and 2.64% and 2.11% and 0.17% (2×) and 3.56% and 2.25% and 4.88% and 0.14% and 11.04% and 2.84% and 0.18% (2×) and 0.16% and 0.15%
same,cleavage in saliva from patients compared to saliva from healthy donors,[4],discriminated against periodontitis
"Ac-GSGSGPQGIAGAGSGS-Den [Sensor S1, Ac-GSGS-GPQGIAGA-GSGS-Den]","cleavage rate (4 nM MMP mix, 5 min, HPLC)",[5],< 1%
same,"cleavage rate (8 nM MMP mix, 5 min, HPLC)",[5],> 20%
